Test results reported in publication PMC3058826 (Nature, 2010).

Biological target: T1, TRIM24 PHD-Bromo C840W (human, UniProt O15164 824-1006, C840W)
T1 sequence: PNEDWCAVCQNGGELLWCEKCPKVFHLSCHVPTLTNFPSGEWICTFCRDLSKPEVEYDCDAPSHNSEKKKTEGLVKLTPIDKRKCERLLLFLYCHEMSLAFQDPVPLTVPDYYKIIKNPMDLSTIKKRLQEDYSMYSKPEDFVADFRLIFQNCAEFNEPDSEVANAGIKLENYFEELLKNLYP
Assay: ITC

Kd: > 400 µM
Binder: ARTKQTARKSTGGKA [H3(1–15)K4 peptide]
